Laboratory results published in paper PMC1075921 (Nucleic Acids Research, 2005).
Where a chain is given by its changes, count along the chain named. Numbers in names are those of the source. One block for each binder: values may come before it.

Target: transactivation domain of human p53 (residues 1–73) (human, UniProt P04637 1-73, R72)
Assay: NMR titration

- mean intensity ratio (free/with partner) of p53TAD residues 42–56: 35 ± 34
B1: hRPA70_(1–168) Y118A mutant (domain or fragment)
chain: MVGQLSEGAIAAIMQKGDTNIKPILQVINIRPITTGNSPPRYRLLMSDGLNTLSSFMLATQLNPLVEEEQLSSNCVCQIHRFIVNTLKDGRRVVILMELEVLKSAEAVGVKIGNPVPANEGLGQPQVAPPAPAASPAASSRPQPQNGSSGMGSTVSKAYGASKTFGKA

- intensity ratio (free/with partner) of all p53TAD residues except I50-F54: < 2
- mean intensity ratio (free/with partner) of p53TAD residues I50-F54: 3.3 ± 1.7
B2: hRPA70_(1–168) R41E mutant (domain or fragment)
chain: B1 chain with R41E, A118Y
